The record followed here is the supplement of paper PMC12042874.

± gives the uncertainty stated by the source.

The nature of this series: amyloid nucleation score (Sup35N fusion, yeast selection) (log enrichment); library NNK2; higher = more nucleation; inactive = no reads after selection. In short, it runs like this: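 The nucleation score is the log enrichment of output over input reads, calculated with DiMSum and centred on the mode score of non-aggregating sequences. Sequences with under 100 input reads were excluded. Reads came from Illumina sequencing of plasmid inserts from psi-negative yeast expressing Sup35N fused to peptides of 20 random codons, induced 24 hours with 100 μM copper sulfate and grown 7 days at 30°C without adenine and uracil.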
In turn, SCCLLPKYELRIIYCASRRK displayed an amyloid nucleation score of -0.324 ± 1.1.
With SCDWRAGPSSATRTR the figure was 1.24 ± 0.35; with SCFIFSCYDTSLQMLVFAVG, -0.591 ± 0.63.
On to SCGMFESPAVYGYSARLSRL, for which the amyloid nucleation score entry was “inactive”.
Take SCHSFRFKPNGFVL: the amyloid nucleation score is -0.575 ± 0.49.
For the substance SCKNMGHVWFIVDVHHNRRL, the amyloid nucleation score entry is “inactive”.
As for SCLSSFELVL, the amyloid nucleation score was -0.694 ± 1.1.
Substance SCMYIFLFLNSNIQLIVWDV came in with an amyloid nucleation score of -0.137 ± 1.1.
Substance SCNDANILSMSVVWVLRTGE gave an amyloid nucleation score of 3.12 ± 0.13.
As to SCQENICENWFWLLHD, the amyloid nucleation score is -0.321 ± 0.45.
Take SCVSTYDFNSIR: the amyloid nucleation score is -0.484 ± 0.25.
As for SCVYLDCLF, the amyloid nucleation score was found to be 0.25 ± 0.6.
SCWYKRWTPCSRDYDSFYIA gave an amyloid nucleation score of 2.72 ± 0.09.
The substance SDAVFFLLSNGNRPPRAAMS gave an amyloid nucleation score of 0.155 ± 0.29.
Take SDDWIDYRCNPGRGSKEAMA: the amyloid nucleation score is 4.6 ± 0.098.
For SDGNELDWIAGLTMYRGVER, the amyloid nucleation score was 0.319 ± 0.8.
With SDLRRCM the figure was 0.277 ± 0.21; with SDSDLPGFRREGNRIRVWLG, 0.312 ± 0.49.
SDSNSCGEFARISYMGKWCE had an amyloid nucleation score of 0.705 ± 0.8.
SDVELWRYG had an amyloid nucleation score of 2.55 ± 0.065.
As to SDYYVFTDVFVGGYNLDE, the amyloid nucleation score is -1.04 ± 1.
Turning to SEAEVSFWAFPEEYIEHKYM, the amyloid nucleation score result was “inactive”.
Substance SECKSRRYIWWHIWYDLS yielded an amyloid nucleation score of 0.49 ± 0.12.
Consider SEFSNFKSLQPVYH, for which the amyloid nucleation score is -0.047 ± 1.1.
In turn, SEILWKTWNRFKPCFSRQYG came in with an amyloid nucleation score of -0.675 ± 0.78.
With SELHGCYFHVHRRHRYRGYY the figure was -0.015 ± 0.61; with SELIGFLGGNQIELA, 0.027 ± 0.34.
For SELWYVPLANVE, the amyloid nucleation score came out at 0.242 ± 0.5.
With SENGRLLLGLFGKRWDVNDV the figure was -0.097 ± 0.79.
Substance SETNMVHPYAIYLKVRYANN registered an amyloid nucleation score of 0.566 ± 0.24.
Substance SEVILYGMHSNINLPI registered an amyloid nucleation score of 0.063 ± 1.1.
SFALGLQRNVNCKDD gave an amyloid nucleation score of -0.06 ± 0.54.
The substance SFANVSVMSIYRAVNPSWRP registered an amyloid nucleation score of 5.56 ± 0.072.
Consider SFCGLTVILGRSSSAWGLPT, for which the amyloid nucleation score stood at 6.959 ± 0.053.
Take SFCSTGTEDTT: the amyloid nucleation score was -0.213 ± 0.26.
With SFDLWLCTRRWLGGAWILL the figure was -0.029 ± 0.65.
In turn, SFINGILRFLSRRCNCIWLL came in with an amyloid nucleation score of 0.14 ± 0.5.
SFKGDDVVYC registered an amyloid nucleation score of -0.052 ± 0.27.
The substance SFLSKSWY had an amyloid nucleation score of 1.18 ± 0.17.
Take SFNGVILRNDVITRVLFDRQ: the amyloid nucleation score was 6.7 ± 0.051.
With SFNYP the entry was “inactive”; with SFSANADYGWNDRTNFFSVF, “inactive”; with SFSCFVCCDQHKSRGSVWHY, 8.683 ± 0.076.
With SFSESIPIIGGLRKAVSHTS the figure was 0.413 ± 0.24; with SFVIIVLDDLCSCAN, 1.62 ± 0.13.
As to SFVVRTQMSGCANSFDEKFN, the amyloid nucleation score was -0.479 ± 1.
In turn, SFYSDYNQLIISMGHWSSMN gave an amyloid nucleation score of 4.35 ± 0.11.
As to SGAVHFQRRASCEGQDMLCW, the amyloid nucleation score is -0.028 ± 0.26.
SGAYSDGWYRQHFMVQL: the amyloid nucleation score result is “inactive”.
SGCLQRFSQSLGRTCFIWLG had an amyloid nucleation score of -1.29 ± 0.75.
With SGGRYTEATWECG the figure was 0.316 ± 0.65; with SGGSDMQHS, 1.61 ± 0.3; with SGILREPVMIQVSVLQEQHW, 5.025 ± 0.045.
The substance SGINNIWYEDLTLPKWSKG registered an amyloid nucleation score of -0.401 ± 0.55.
In the case of SGIVG, the amyloid nucleation score stood at 0.791 ± 0.57.
With SGLSAVGSLGVNIEISSFVR the figure was -0.983 ± 0.78; with SGNKAMWKIIPLT, -0.262 ± 0.27; with SGPLVWLLLWQFNDGLCGWG, -0.656 ± 0.49.
SGSAESFLT returned an amyloid nucleation score of 0.195 ± 0.53.
For the substance SGSIKHMNLVMV, the amyloid nucleation score is -0.027 ± 0.2.
With SGTSLRVTSNRRFDMYGVYG the figure was -0.766 ± 0.5.
Take SGVFAFTKLLNTIEGDFCHR: the amyloid nucleation score is -0.721 ± 0.64.
With SGVPYVNNMEASELSWGKIP the entry was “inactive”; with SGWDCSRVIQVLQVKNIYDS, 3.36 ± 0.06; with SGYVRCLSAYDFLVNGLPML, 0.519 ± 0.31.
Consider SHEIVCTSVRSLTIFKQVQR, for which the amyloid nucleation score was 3.24 ± 0.059.
With SHFSYKECRSAVRMLQYNGA the figure was 0.719 ± 0.52; with SHHLRKSFCPC, -0.279 ± 0.5; with SHPDRTIDSGFDTMRDAIWT, 0.22 ± 0.63.
With SHSGIFSDAAHDVLGGGEEK the figure was 0.503 ± 0.8.
Take SHTVTDGWCVV: the amyloid nucleation score stood at 1.52 ± 0.21.
Turning to SHVCYSRNIH, the amyloid nucleation score was found to be 1.06 ± 0.26.
Substance SIEYRDLKVCSLLYPVPQSG gave an amyloid nucleation score of 0.127 ± 0.46.
As to SIFITATCNVH, the amyloid nucleation score result is “inactive”.
In turn, SIFMDRCDWPSCSFGRIHEV showed an amyloid nucleation score of -0.521 ± 0.35.
The substance SIFMYMYKSFFMGNYINGGM displayed an amyloid nucleation score of 1.03 ± 0.27.
For SIGKYLCYA, the amyloid nucleation score worked out at 2.38 ± 0.057.
Regarding SIKGIEVEYQGFRVCYSTVY, the amyloid nucleation score entry was “inactive”.
SILLPPFSRAFDSPRIYITP showed an amyloid nucleation score of -0.82 ± 0.55.
SIRRLTR showed an amyloid nucleation score of -0.172 ± 0.49.
On to SIRSKGDILSCSRTTFC, for which the amyloid nucleation score turned out to be 5.32 ± 0.071.
The substance SISGMRWSSNHQVRSVLGAT gave an amyloid nucleation score of 1.17 ± 0.33.
The substance SISLCGVGVRWESVTAGNVC registered an amyloid nucleation score of 0.51 ± 0.36.
SISRVMEMTSLSIHRFIRLC registered an amyloid nucleation score of -0.918 ± 1.1.
Turning to SISSVLCYWYKNHKNDIVSG, the amyloid nucleation score result is “inactive”.
Take SISVLYNLRLLCIYNIVVYR: the amyloid nucleation score entry is “inactive”.
On to SIVFSLW, for which the amyloid nucleation score was 1.62 ± 0.14.
SIVSTGFVRDLNRTRCYSGG displayed an amyloid nucleation score of 0.158 ± 0.56.
With SKCIRLPFFTLLLTNMFHVA the entry was “inactive”; with SKIGHD, 0.545 ± 0.57; with SKLYDVCVHRVWRTWGFQEN, 0.027 ± 1.
SKMSYAYFLSLTMRCVADSM: the amyloid nucleation score turned out to be 3.35 ± 0.06.
On to SKNYSSWPNPHMIQGLLGSM, for which the amyloid nucleation score is -0.735 ± 0.3.
Take SKPGNIKWYSGFSKRQREAA: the amyloid nucleation score result was “inactive”.
Consider SKRRSSLQPS, for which the amyloid nucleation score was -0.151 ± 0.31.
Take SKRVDIKHSMRARDGLNRFW: the amyloid nucleation score is -0.226 ± 1.1.
The substance SLCQSLDSWCYFLLWHWQWY came in with an amyloid nucleation score of -0.637 ± 1.1.
With SLCREVPFLWDFCL the figure was 0.163 ± 0.63.
With SLEGYKLDAQRRFKMVCEMV the figure was -0.267 ± 0.33.
Turning to SLFGQLSCQASCRSSKDGGN, the amyloid nucleation score was 6.375 ± 0.061.
The substance SLFWNISPLKWSLLIGRCSV showed an amyloid nucleation score of -1.01 ± 0.78.
As to SLGRGPYDRNMIVFMMRELT, the amyloid nucleation score was -0.682 ± 0.64.
SLHFCQTVFFYMQILSMLAC: the amyloid nucleation score entry is “inactive”.
In the case of SLKITSYSVCVCCLCMNCNT, the amyloid nucleation score is 7.6 ± 0.052.
Turning to SLKPSLLSDKNE, the amyloid nucleation score is -1.39 ± 0.36.
Turning to SLKSYVSVQFELASSVWILE, the amyloid nucleation score is 1.02 ± 0.24.
Turning to SLLGV, the amyloid nucleation score was -1.3 ± 0.34.
In the case of SLLGVENNCVISFTTIFVVS, the amyloid nucleation score was 5.11 ± 0.088.
The substance SLLLKVMSR had an amyloid nucleation score of -0.627 ± 0.79.
Take SLMLGVYHLFTCGTQTRCYS: the amyloid nucleation score is -0.71 ± 1.
Turning to SLMVQWSTILAHIRHFMTA, the amyloid nucleation score was determined as 0.073 ± 0.63.
SLQSYGVYR registered an amyloid nucleation score of -0.359 ± 0.76.
SLSERLVILMTWCTFVVSAQ registered an amyloid nucleation score of 1.17 ± 0.29.
SLSLSSVERNGAANSAREFG: the amyloid nucleation score worked out at 0.647 ± 0.31.
With SLSRFCMNLCRFSGGIQSVR the figure was -1.34 ± 0.42; with SLTCIDWSELQYSNKSFGSM, -0.766 ± 0.79; with SLTSGRLYEIIIRIYHASFM, -1.46 ± 0.34.
As for SLTVTDIKLGHGRV, the amyloid nucleation score was 6.2 ± 0.04.
As for SLVKVGDKRYMFVSTQGKSL, the amyloid nucleation score came out at 0.055 ± 0.42.
Consider SLVNATGRWINVVTNFRLNG, for which the amyloid nucleation score came out at 7.565 ± 0.049.
With SLVTSIVQG the figure was -0.434 ± 0.64.
On to SLVYL, for which the amyloid nucleation score is 1.1 ± 0.13.
With SMCDNQKLATDFVSAPRKYG the figure was -0.73 ± 0.79.
As to SMCWNL, the amyloid nucleation score came out at 0.17 ± 0.39.
As to SMDFNNDC, the amyloid nucleation score result was “inactive”.
Consider SMGFSRHRFKG, for which the amyloid nucleation score was 0.164 ± 0.8.
With SMGLDFPWMSRDTGNFGTEI the figure was -0.337 ± 0.4; with SMGVGTAVTCRTLVVLDGSC, 0.741 ± 0.37.
Substance SMHEISVLLVDPVTLQYLG returned an amyloid nucleation score of 0.114 ± 0.63.
Regarding SMIIARILHITCFYRAHRRV, the amyloid nucleation score is -0.721 ± 0.64.
In turn, SMIYIGIFS gave an amyloid nucleation score of 5.281 ± 0.031.
The substance SMLDILS had an amyloid nucleation score of -1.79 ± 0.62.
The substance SMLFRIRSLNVCSFAGLMRQ gave an amyloid nucleation score of 2.37 ± 0.1.
SMSPGVFLISGWPMVENVVF: the amyloid nucleation score entry is “inactive”.
With SMVTFDYV the entry was “inactive”; with SMYCTPFILCYNPHSNRVAH, 9.811 ± 0.037; with SMYLKKGRSVRGGMG, -0.66 ± 0.44.
Substance SNALQDGRVQLGSFEHRIVR returned an amyloid nucleation score of 0.649 ± 0.5.
Regarding SNCGVLD, the amyloid nucleation score entry was “inactive”.
